Here are results for 2 molecules from patent publication US20240010735A1 (EISAI R AND D MANAGEMENT, published 2024).

Test [1] addresses T1, human EphA8 extracellular region-SEAP-His protein (human, UniProt P29322 28-542).
T1 construct: extracellular domain; also called Eph receptor extracellular region-SEAP-His protein; not shown: secretory alkaline phosphatase (SEAP); histidine tag
T1 sequence (looked up): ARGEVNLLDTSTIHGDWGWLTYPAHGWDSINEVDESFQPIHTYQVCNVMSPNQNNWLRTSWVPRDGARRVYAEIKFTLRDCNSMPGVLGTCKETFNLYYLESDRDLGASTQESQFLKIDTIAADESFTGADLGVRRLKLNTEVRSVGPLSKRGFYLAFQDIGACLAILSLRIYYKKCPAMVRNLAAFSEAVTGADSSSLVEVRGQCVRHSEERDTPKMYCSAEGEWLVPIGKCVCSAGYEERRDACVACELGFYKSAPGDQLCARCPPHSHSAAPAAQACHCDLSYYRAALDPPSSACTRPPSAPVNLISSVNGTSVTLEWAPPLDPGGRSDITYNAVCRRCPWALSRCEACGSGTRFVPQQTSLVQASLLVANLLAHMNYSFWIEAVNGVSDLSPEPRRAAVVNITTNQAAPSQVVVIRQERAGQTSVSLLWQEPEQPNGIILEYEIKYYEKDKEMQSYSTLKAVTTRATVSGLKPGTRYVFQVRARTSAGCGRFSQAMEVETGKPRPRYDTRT
Kind of test: ELISA: SEAP-His proteins (1 nM) captured on anti-6-His antibody, antibody B 10 µg/mL with human IgG 100 µg/mL, HRP anti-human IgG, OD450 as % of human EphA4-SEAP-His.

The target in test [2] is T2, mouse EphA4 extracellular region-SEAP-His protein (mouse).
T2 construct: also called mouse EphA4 extracellular region-SEAP-His 10
T2 sequence (chain, as listed by the source limits assumed): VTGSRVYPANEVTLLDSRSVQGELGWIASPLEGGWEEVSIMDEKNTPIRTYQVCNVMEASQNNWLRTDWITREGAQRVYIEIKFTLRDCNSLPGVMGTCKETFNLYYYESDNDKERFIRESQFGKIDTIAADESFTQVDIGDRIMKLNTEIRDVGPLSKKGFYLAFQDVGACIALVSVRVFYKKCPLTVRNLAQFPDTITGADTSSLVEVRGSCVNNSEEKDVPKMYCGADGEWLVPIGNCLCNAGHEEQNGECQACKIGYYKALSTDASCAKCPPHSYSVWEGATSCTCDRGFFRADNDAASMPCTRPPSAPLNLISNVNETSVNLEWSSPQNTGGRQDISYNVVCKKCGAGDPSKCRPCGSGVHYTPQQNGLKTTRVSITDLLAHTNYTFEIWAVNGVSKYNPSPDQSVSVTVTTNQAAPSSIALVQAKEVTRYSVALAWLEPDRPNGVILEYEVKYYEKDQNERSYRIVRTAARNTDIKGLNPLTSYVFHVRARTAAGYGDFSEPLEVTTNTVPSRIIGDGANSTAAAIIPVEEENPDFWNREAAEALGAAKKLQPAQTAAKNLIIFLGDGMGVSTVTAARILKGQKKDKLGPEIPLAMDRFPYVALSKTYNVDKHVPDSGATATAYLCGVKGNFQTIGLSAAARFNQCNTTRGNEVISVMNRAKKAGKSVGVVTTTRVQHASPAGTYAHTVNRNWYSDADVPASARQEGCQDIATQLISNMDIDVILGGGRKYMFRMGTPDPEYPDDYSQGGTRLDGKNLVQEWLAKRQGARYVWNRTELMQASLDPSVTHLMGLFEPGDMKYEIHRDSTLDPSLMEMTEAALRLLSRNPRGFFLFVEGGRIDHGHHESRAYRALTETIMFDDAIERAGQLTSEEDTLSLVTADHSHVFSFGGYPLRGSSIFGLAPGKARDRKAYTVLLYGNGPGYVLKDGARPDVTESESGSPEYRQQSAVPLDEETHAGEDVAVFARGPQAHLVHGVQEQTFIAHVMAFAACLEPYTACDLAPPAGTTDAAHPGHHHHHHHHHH
Kind of test: SPR (Biacore T200): mouse EphA4 extracellular region-SEAP-His captured on anti-His antibody, antibody A 1.6-100 nM as analyte, 1:1 fit. As for the experimental part: The binding affinity of antibody A against mouse and human EphA4 was determined by surface plasmon resonance (SPR method) employing Biacore T200 (GE Healthcare). First, anti-His antibodies (GE Healthcare, 28-9950-56) were fixed to a sensor chip CM5. Fixation was carried out by amine coupling method employing N-hydroxysuccinimide (NHS) and N-ethyl-N′-(3-dimethylaminopropyl) carbodiimide hydrochloride salt (EDC), and ethanolamine was employed for blocking (the sensor chip and reagents for fixation are all from GE Healthcare). This was diluted with the fixation buffer (10 mM sodium acetate, pH 4.5) to 3.5 μg/mL, and fixed onto the sensor chip according to the protocol accompanying Biacore T200. Mouse or human EphA4 extracellular region-SEAP-His 10 was diluted with the running buffer HBS-EP (GE Healthcare, BR-1001-88), and the solution was sent and captured onto the flow cell for 120 seconds (about 10 RU of captured amount). […] Fitting analysis by 1:1 binding model employing the software accompanying the system, BIA evaluation software, was carried out against the binding reaction curve obtained, and the binding affinity (KD=kd/ka) against mouse and human EphA4 was calculated.
(In general: SPR reads the build-up and loss of mass on a sensor chip optically.)

Test [3] has as its target T3, mouse EphB3 extracellular region-Fc-His protein (mouse; human, UniProt P54754 30-554).
T3 construct: extracellular domain; not shown: Fc region of human IgG1; histidine tag
T3 sequence (looked up): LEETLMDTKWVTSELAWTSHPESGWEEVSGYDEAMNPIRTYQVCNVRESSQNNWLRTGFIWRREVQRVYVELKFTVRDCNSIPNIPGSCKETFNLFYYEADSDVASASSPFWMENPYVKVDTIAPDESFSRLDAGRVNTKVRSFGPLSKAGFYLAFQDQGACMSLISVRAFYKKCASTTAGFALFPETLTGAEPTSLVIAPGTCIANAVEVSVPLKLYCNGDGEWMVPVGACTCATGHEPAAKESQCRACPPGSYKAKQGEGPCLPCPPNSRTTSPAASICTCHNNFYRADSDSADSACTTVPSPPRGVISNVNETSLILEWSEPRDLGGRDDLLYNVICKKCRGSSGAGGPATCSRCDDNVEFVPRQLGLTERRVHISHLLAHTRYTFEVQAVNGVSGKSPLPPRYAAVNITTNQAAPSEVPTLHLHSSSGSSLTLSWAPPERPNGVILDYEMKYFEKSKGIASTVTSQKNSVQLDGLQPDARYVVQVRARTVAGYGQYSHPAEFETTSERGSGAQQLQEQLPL
Description: ELISA: Fc-His proteins (1 nM) captured on anti-6-His antibody, antibody A 10 µg/mL with human IgG 100 µg/mL, HRP anti-mouse IgG, OD450 as % of mouse EphA4-Fc-His.

B1: humanized anti-EphA4 monoclonal antibody (antibody B) (antibody, human IgG2, V domains shown)
VH: QVQLVESGGGVVQPGRSLRLSCAVSGFSLTRFGVHWVRQAPGKGLEWVAVIWRGGSTDYNAAFMSRLTISKDNSKNTVYLQMNSLRAEDTAVYYCAKESLFGVYYDYGYYSMDYWGQGTTVTVSS
VL: DIQMTQSPSSLSASVGDRVTITCRASQEISGYLSWLQQKPGKAPKRLIYAASTLDSGVPSRFSGSRSGTEYTLTISSLQPEDFATYYCLQYASYPLTFGGGTKVEIKR
notes: expressed in Expi293F cells; also called humanized antibody of antibody A; HK2-42 / L1-8
B1: the binding result in test [1] is listed as “no binding (tested: 10 µg/mL)”.

B2: mouse anti-EphA4 monoclonal antibody (antibody A) (antibody, mouse IgG1, kappa, V domains shown)
VH: QVQLKQSGPSLVQPSQSLSITCTVSGFSLTRYGVHWVRQSPGKGLEWLGVIWRGGSTDYNAAFMSRLSITKDNSKSQVFFKMNSLQADDTAIYYCAKESLFGVYYDYGYYSMDYWGQGTSVTVSS
VL: DIQMTQSPSSLSASLGERVSLTCRASQEISGYLSWLQQKPDGTIKRLIYAASTLDSGVPKRFSGSRSGSDYSLTISSLESEDFADYYCLQYASYPLTFGAGTKLELKR
notes: purified from hybridoma supernatant
In test [2], B2 returned a koff of 0.000433 s⁻¹ and a kon of 328000 M⁻¹ s⁻¹. For the same molecule, in test [3], the binding result is “no binding (tested: 10 µg/mL)”.

Broadly, the koff is the rate constant with which the complex falls apart. Higher therefore signals fast dissociation. In general, kon refers to a measure of how fast the partners come together. Higher therefore signals faster complex formation.
